Like-named read-outs stand apart in the source and are kept apart here.
Experiments:
[1] = target: HLA A2.1 molecule (human); experiment: T2 cells, flow cytometry (BB7.2); complex dissociation
[2] = target: HLA A2.1 molecule (human); experiment: T2 cells, flow cytometry (BB7.2); reference HIVpol 589
[3] = target: HLA A2.1 molecule (human); experiment: T2 cells, flow cytometry; P1Y variant against its natural peptide
[4] = target: HLA A2.1 molecule (human); experiment: T2 cells, flow cytometry (BB7.2); reference I9V
[5] = remark: other sources report otherwise

Binder | DC50 [1] | RA (relative affinity) [2] | DC50 Y1-DC50 WT [3] | RA WT/RA Y1 [3] | further results
FLSTLVHGV (modifications not checked) [mp 876] | > 6 h | 1.2 |  |  | 
YLQVNSLQTV (modifications not checked) [mhp 988Y1] | > 6 h | 2.1 |  |  | 
YLVKSPNHV (modifications not checked) [P1Y variant of HER-2/neu 851] |  |  | 2 h | 3 | 
FLFWLMDTYV (modifications not checked) [mp 534] | > 6 h | 0.2 |  |  | 
QLLRSFFHFL (modifications not checked) [mp 545] | > 6 h | 1.8 |  |  | 
TLEEITGYL (modifications not checked) [HER-2/neu 402] | < 2 h | 19 |  |  | 
SLFDFFHFL (modifications not checked) [mp 797] | > 6 h | 1.5 |  |  | 
YLIHHNTHL (modifications not checked) [HER-2/neu 466Y1] | 6 h | 1.4 | > 4 h | 3.3 | 
YLADTNSLAV (modifications not checked) [gp100 570Y1] |  |  | > 2 h | 3.4 | 
ILATFLAWL (modifications not checked) [mp 530] | > 6 h | 0.8 |  |  | 
YLFFYRKSV (modifications not checked) [mhp 572Y1] | 5 h | 2.2 |  |  | 
KLTGDENFTI (modifications not checked) [Tyrosinase 224] | < 2 h | > 50 |  |  | 
YLGTHTMEV (modifications not checked) [P1Y variant of gp100 178] |  |  | 2 h | 0.8 | 
YLTVILGVL (modifications not checked) [P1Y variant of Mart-1 32] |  |  | 2 h | 16.2 | 
YLVSEFSRM (modifications not checked) [P1Y variant of HER-2/neu 971] |  |  | 2 h | 11.6 | 
ALIHHNTHL (modifications not checked) [HER-2/neu 466] | 2 h |  |  |  | 
PLTSIISAV (modifications not checked) [HER-2/neu 650] | < 2 h | 1.4 |  |  | 
YLLVVVLGV (modifications not checked) [HER-2/neu 661Y1] |  |  | 2 h | > 1.5 | 
RLFFYRKSV (modifications not checked) [mhp 572] | < 2 h | 25.3 |  |  | 
YMAGVGSPYV (modifications not checked) [P1Y variant of HER-2/neu 773] |  |  | 2 h | 2 | 
YLMPYGCLL (modifications not checked) [P1Y variant of HER-2/neu 799] |  |  | > 2 h | 3.9 | 
LLDTGADDTV (modifications not checked) [pol79] | < 2 h |  |  |  | RA (relative affinity) [4]: 10
YLTGDENFTI (modifications not checked) [P1Y variant of Tyrosinase 224] |  |  | > 2 h | > 5.1 | 
ELVSEFSRM (modifications not checked) [HER-2/neu 971] | 2 h | > 70 |  |  | 
YLEEITGYL (modifications not checked) [HER-2/neu 402Y1] | 4 h | 3.7 | > 2 h | 5.2 | 
PLQPEQLQV (modifications not checked) [HER-2/neu 391] | 2 h | > 70 |  |  | 
FLPWHRLFLL (modifications not checked) [Tyrosinase 207] | 2 h | > 50 |  |  | 
HLYQGCQVV (modifications not checked) [HER-2/neu 48] | > 8 h | 1.7 |  |  | 

Binder | DC50 [1] | RA (relative affinity) [2] | DC50 Y1-DC50 WT [3] | RA WT/RA Y1 [3] | further results
DLQVNSLQTV (modifications not checked) [mhp 988] | < 2 h | 28.6 |  |  | 
VLYRYGSFSV (modifications not checked) [gp100 476] | 6 h | 10 |  |  | 
VMAGVGSPYV (modifications not checked) [HER-2/neu 773] | 6 h | 1.7 |  |  | 
LLGCAANWIL (modifications not checked) [HBVpol 765] | 4 h | 2 |  |  | 
PLEEELPRL (modifications not checked) [HBVpol 594] |  |  |  |  | DC50 [1, 5]: < 2 h; RA (relative affinity) [2, 5]: 4.2
YLYQGCQVV (modifications not checked) [P1Y variant of HER-2/neu 48] |  |  | 0 h | 3 | 
MLGTHTMEV (modifications not checked) [gp100 178] |  | 0.3 |  |  | 
AMLGTHTMEV (modifications not checked) [gp100 177] | > 6 h | 0.5 |  |  | 
QLMPYGCLL (modifications not checked) [HER-2/neu 799] |  | 1 |  |  | 
ILLVVVLGV (modifications not checked) [HER-2/neu 661] |  | > 60 |  |  | 
YIFGSLAFL (modifications not checked) [HER-2/neu 369Y1] |  |  | > 2 h | 3.9 | 
YLDGTATLRL (modifications not checked) [gp100 457Y1] |  |  | > 2 h | 2.3 | 
YLPWHRLFLL (modifications not checked) [P1Y variant of Tyrosinase 207] |  |  | > 4 h | > 6.4 | 
YLYRYGSFSV (modifications not checked) [gp100 476Y1] |  |  | 2 h | 4.2 | 
YMLGTHTMEV (modifications not checked) [gp100 177Y1] |  |  | 2 h | 0.6 | 
VLVKSPNHV (modifications not checked) [HER-2/neu 851] | 4 h | 24 |  |  | 
MLLAVLYCL (modifications not checked) [Tyrosinase 1] |  | > 60 |  |  | 
ALCRWGLLL (modifications not checked) [HER-2/neu 5] | > 8 h |  |  |  | 
KLTPLCVSL (modifications not checked) [K9L] | > 6 h |  |  |  | RA (relative affinity) [4]: 1.35
YLQPEQLQV (modifications not checked) [HER-2/neu 391Y1] | 8 h | 1.3 | > 6 h | 55.5 | 
SLADTNSLAV (modifications not checked) [gp100 570] |  | 1 |  |  | 
LLDGTATLRL (modifications not checked) [gp100 457] |  | 1.6 |  |  | 
YLLAVLYCL (modifications not checked) [P1Y variant of Tyrosinase 1] |  |  | > 2 h | > 3.7 | 
ILAKFLHWL (modifications not checked) [mhp 540] | > 6 h | 0.3 |  |  | 
ILTVILGVL (modifications not checked) [mart-1 32] | 4 h | 21.1 |  |  | 
YLCRWGLLL (modifications not checked) [HER-2/neu 5Y1] |  |  | 0 h | 1.1 | 
YLVPQQGFFC (modifications not checked) [HER-2/neu 1023] | 4 h | 19.6 |  |  | 
